Tests used:
[1] = target: α7-Venus nAChR subunit (mouse) (UniProt P49582); test: FRET or BRET; sensitized acceptor emission FRET between CFP-RIC-3 (donor) and α7-Venus, β2YFP (with nonfluorescent α4) or α4YFP (with nonfluorescent β2) co-transfected in living HEK293T cells at cDNA ratios of CFP-RIC-3 to subunit of 0.2:1, 0.5:1, 1:1 or 5:1
[2] = target: β2YFP nAChR subunit (mouse) (UniProt Q9ERK7); test: as above
Sequence of UniProt Q9ERK7 (Q9ERK7 26-501): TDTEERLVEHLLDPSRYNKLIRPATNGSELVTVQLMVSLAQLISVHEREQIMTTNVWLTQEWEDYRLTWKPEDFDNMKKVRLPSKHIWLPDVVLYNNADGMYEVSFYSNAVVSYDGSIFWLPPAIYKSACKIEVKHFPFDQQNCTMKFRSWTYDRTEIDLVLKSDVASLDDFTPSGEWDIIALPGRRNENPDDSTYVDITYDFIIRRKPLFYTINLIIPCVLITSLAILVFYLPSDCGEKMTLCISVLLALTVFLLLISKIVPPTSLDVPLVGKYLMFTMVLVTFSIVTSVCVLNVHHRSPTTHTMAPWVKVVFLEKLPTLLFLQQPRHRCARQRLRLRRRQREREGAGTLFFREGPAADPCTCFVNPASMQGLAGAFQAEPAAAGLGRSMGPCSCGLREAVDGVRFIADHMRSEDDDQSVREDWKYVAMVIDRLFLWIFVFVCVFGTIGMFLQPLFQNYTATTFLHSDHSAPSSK

Sequence of UniProt P49582 (P49582 23-502): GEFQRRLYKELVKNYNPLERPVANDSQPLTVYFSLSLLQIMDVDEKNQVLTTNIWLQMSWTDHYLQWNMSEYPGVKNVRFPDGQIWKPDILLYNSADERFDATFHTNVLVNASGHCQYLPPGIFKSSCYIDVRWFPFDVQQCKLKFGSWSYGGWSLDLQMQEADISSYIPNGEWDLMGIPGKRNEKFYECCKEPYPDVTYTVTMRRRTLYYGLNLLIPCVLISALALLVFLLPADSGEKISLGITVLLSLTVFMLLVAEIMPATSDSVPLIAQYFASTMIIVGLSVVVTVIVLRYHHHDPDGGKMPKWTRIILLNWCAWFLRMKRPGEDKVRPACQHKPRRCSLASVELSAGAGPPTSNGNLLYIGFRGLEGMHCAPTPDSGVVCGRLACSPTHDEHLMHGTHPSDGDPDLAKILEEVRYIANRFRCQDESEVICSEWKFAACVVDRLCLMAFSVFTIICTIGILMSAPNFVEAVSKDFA

Work on “CFP-RIC-3 (cyan fluorescent protein fused to the N terminus of RIC-3) (from UniProt Q7Z5B4 29-369) (natural protein)” yielded an FRET efficiency (CFP-RIC-3 to α7-Venus 1:1) [1] of 26%, an FRET efficiency (CFP-RIC-3 to β2YFP 0.2:1) [2] of 10.8% and an FRET efficiency (CFP-RIC-3 to β2YFP 0.5:1) [2] of 10.7%.
